The supplement of paper PMC7877785
± gives the uncertainty stated by the source.

Test: self-splicing fitness, log relative to wild type (ln ratio); higher = more splicing; Tetrahymena group I intron in knt gene, E. coli kanamycin selection, DiMSum; sequences stand for … in CUCUCU…GGAGGGAAAAGUUAUCAGGCAUGCACCUGGUAGCUAGUCUUUAAACCAAUAGAUUGCAUCGGUUUAAAAGGCAAGACCGUCAAAUUGCGGGAAAGGGGUCAACAGCCGUUCAGUACCAAGUCUCAGGGGAAACUUUGAGAUGGCCUUGCAAAGGGUAUGGUAAUAAGCUGACGGACAUGGUCCUAACCACGCAGCCAAGUCCUAAGUCAACAGAUCUUCUGUUGAUAUGGAUGCAGUUCACAGACUAAAUGUCGGUCGGGGAAGAUGUAUUCUUCUCAUAAGAUAUAGUCGGACCUCUCCUUAAUGGGAGCUAGCGGAUGAAGUGAUGCAACACUGGAGCCGCUGGGAACUAAUUUGUAUGCGAAAGUAUAUUGAUUAGUUUUGGAGUACUCGUGGUCG
Summary of the method: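 The eight P1ex-region nucleotides of an intron in the knt kanamycin-resistance gene on pET-22b(+) were all randomised and the library put into E. coli BL21(DE3). Six replicate transformations were grown overnight at 37°C or 30°C on LB agar with or without 25 μg/mL kanamycin, together with 100 μg/mL carbenicillin, 50 μM IPTG and 0.2% rhamnose. Colonies were pooled and amplicon-sequenced on an Illumina HiSeq 2500. Fitness from DiMSum is the error-weighted combination of wild-type-normalised replicate fold changes, kanamycin over none.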

Sequence | self-splicing fitness (ln) (30 °C) | self-splicing fitness (ln) (37 °C)
CCUCAGCAAUAUUACGACCU | -2.59 ± 0.16 | -2.59 ± 0.29
CCUCAGCAAUAUUACGAUCA | -3.65 ± 0.22 | -2.96 ± 0.26
CCUCAGCAAUAUUACGCAAA | – | -2.46 ± 0.3
CCUCAGCAAUAUUACGCAUC | -2.68 ± 0.18 | -2.85 ± 0.41
CCUCAGCAAUAUUACGCAUG | -1.83 ± 0.092 | -0.467 ± 0.086
CCUCAGCAAUAUUACGCGCU | -2 ± 0.13 | -2.79 ± 0.25
CCUCAGCAAUAUUACGCGGC | -3.25 ± 0.2 | -2.5 ± 0.2
CCUCAGCAAUAUUACGCGUG | -1.85 ± 0.081 | -0.545 ± 0.072
CCUCAGCAAUAUUACGGAAA | -3.7 ± 0.23 | -1.63 ± 0.17
CCUCAGCAAUAUUACGGACG | -0.587 ± 0.064 | 0.272 ± 0.081
CCUCAGCAAUAUUACGGACU | -3.93 ± 0.33 | -1.79 ± 0.24
CCUCAGCAAUAUUACGGCAA | -3.12 ± 0.24 | -2.41 ± 0.23
CCUCAGCAAUAUUACGGGAC | -3.63 ± 0.23 | -1.98 ± 0.26
CCUCAGCAAUAUUACGGGCA | – | -2.2 ± 0.24
CCUCAGCAAUAUUACGGGUU | -4.07 ± 0.21 | -2.02 ± 0.15
CCUCAGCAAUAUUACGUAAA | -3.87 ± 0.24 | -3.05 ± 0.29
CCUCAGCAAUAUUACGUAUC | -0.834 ± 0.13 | -3.05 ± 0.26
CCUCAGCAAUAUUACGUUAA | -2.89 ± 0.17 | -2.96 ± 0.23
CCUCAGCAAUAUUACGUUCC | -3.09 ± 0.15 | -2.42 ± 0.33
CCUGAGCAAUAUUACGAAAU | -3.15 ± 0.29 | -0.975 ± 0.19
CCUGAGCAAUAUUACGACGG | -3.06 ± 0.25 | -2.59 ± 0.48
CCUGAGCAAUAUUACGACUC | -1.44 ± 0.36 | -1.6 ± 0.49
CCUGAGCAAUAUUACGCAGA | -3.44 ± 0.23 | -1.96 ± 0.15
CCUGAGCAAUAUUACGCAUC | -3.39 ± 0.44 | –
CCUGAGCAAUAUUACGCCAC | -3.2 ± 0.45 | -1.35 ± 0.36

Sequence | self-splicing fitness (ln) (30 °C) | self-splicing fitness (ln) (37 °C)
CCUGAGCAAUAUUACGCCAG | -2.75 ± 0.41 | -1.62 ± 0.32
CCUGAGCAAUAUUACGCCGG | – | -1.71 ± 0.39
CCUGAGCAAUAUUACGCGAG | -4.35 ± 0.42 | -2.63 ± 0.28
CCUGAGCAAUAUUACGCGUU | -3.53 ± 0.29 | -3.12 ± 0.35
CCUGAGCAAUAUUACGCUUC | -3.16 ± 0.48 | -2.4 ± 0.41
CCUGAGCAAUAUUACGGAAG | -2.82 ± 0.15 | -1.29 ± 0.12
CCUGAGCAAUAUUACGGACU | -1.55 ± 0.13 | -3.3 ± 0.32
CCUGAGCAAUAUUACGGCGU | -3.51 ± 0.2 | -2.88 ± 0.19
CCUGAGCAAUAUUACGGGCC | -3.87 ± 0.31 | -2.45 ± 0.23
CCUGAGCAAUAUUACGGGUC | -2.95 ± 0.17 | -2.87 ± 0.27
CCUGAGCAAUAUUACGGUGU | -3.89 ± 0.24 | -2.32 ± 0.14
CCUGAGCAAUAUUACGUAAG | -3.03 ± 0.19 | -1.6 ± 0.12
CCUGAGCAAUAUUACGUACA | -3.13 ± 0.33 | -0.722 ± 0.3
CCUGAGCAAUAUUACGUCGG | -4.36 ± 0.36 | -2.47 ± 0.23
CCUGAGCAAUAUUACGUCGU | -2.02 ± 0.43 | -2.06 ± 0.27
CCUGAGCAAUAUUACGUGAA | -4.54 ± 0.34 | -2.83 ± 0.21
CCUGAGCAAUAUUACGUGCC | – | -1.6 ± 0.32
CCUGAGCAAUAUUACGUUAA | -2.92 ± 0.24 | -2.52 ± 0.26
CCUGAGCAAUAUUACGUUAU | -3.15 ± 0.26 | -1.96 ± 0.21
CCUGAGCAAUAUUACGUUCU | -3.63 ± 0.25 | -2.43 ± 0.25
CCUUAGCAAUAUUACGAACG | -0.742 ± 0.18 | -0.847 ± 0.25
CCUUAGCAAUAUUACGACCA | -2.66 ± 0.36 | –
CCUUAGCAAUAUUACGAGUC | – | -2.7 ± 0.28
CCUUAGCAAUAUUACGAUGC | -4.15 ± 0.27 | -2.62 ± 0.17
CCUUAGCAAUAUUACGCCGG | -3.82 ± 0.28 | -2.73 ± 0.26

Sequence | self-splicing fitness (ln) (30 °C) | self-splicing fitness (ln) (37 °C)
CCUUAGCAAUAUUACGCCUG | – | -2.89 ± 0.34
CCUUAGCAAUAUUACGCCUU | -3.52 ± 0.32 | -2.57 ± 0.24
CCUUAGCAAUAUUACGCGGA | -2.93 ± 0.19 | -2.55 ± 0.21
CCUUAGCAAUAUUACGCUAU | -3.14 ± 0.14 | -2.64 ± 0.18
CCUUAGCAAUAUUACGCUGA | -3.23 ± 0.47 | –
CCUUAGCAAUAUUACGGAUA | -2.98 ± 0.29 | -1.92 ± 0.37
CCUUAGCAAUAUUACGGCGU | -3.94 ± 0.33 | -2.78 ± 0.32
CCUUAGCAAUAUUACGGGGG | -3.17 ± 0.23 | -1.39 ± 0.23
CCUUAGCAAUAUUACGGGUA | -2.65 ± 0.19 | -2.38 ± 0.26
CCUUAGCAAUAUUACGGGUU | – | -1.5 ± 0.21
CCUUAGCAAUAUUACGGUAC | -4.06 ± 0.21 | -2.44 ± 0.19
CCUUAGCAAUAUUACGGUUU | -4.06 ± 0.16 | -2.42 ± 0.14
CCUUAGCAAUAUUACGUAAA | -3.63 ± 0.26 | -1.88 ± 0.3
CCUUAGCAAUAUUACGUAGU | -2.48 ± 0.095 | -0.664 ± 0.098
CCUUAGCAAUAUUACGUGCG | -3.52 ± 0.21 | -2.04 ± 0.17
CCUUAGCAAUAUUACGUGGA | -4.29 ± 0.34 | -2 ± 0.2
CGAAAGCAAUAUUACGAACA | -1.92 ± 0.13 | -0.112 ± 0.12
CGAAAGCAAUAUUACGAACU | -1.25 ± 0.091 | 0.0371 ± 0.14
CGAAAGCAAUAUUACGAAUU | -4.27 ± 0.29 | -1.55 ± 0.14
CGAAAGCAAUAUUACGACUC | -2.84 ± 0.14 | -1.63 ± 0.14
CGAAAGCAAUAUUACGAGGA | -3.36 ± 0.25 | -1.13 ± 0.21
CGAAAGCAAUAUUACGAGUA | -3.07 ± 0.19 | -2.36 ± 0.18
CGAAAGCAAUAUUACGAUAU | -3.42 ± 0.28 | -1.27 ± 0.2
CGAAAGCAAUAUUACGCAAU | -3 ± 0.13 | -3.64 ± 0.26
CGAAAGCAAUAUUACGCACG | -3.27 ± 0.17 | -2.03 ± 0.15

Sequence | self-splicing fitness (ln) (30 °C) | self-splicing fitness (ln) (37 °C)
CGAAAGCAAUAUUACGCAGC | -3 ± 0.24 | -3.68 ± 0.33
CGAAAGCAAUAUUACGCCAA | -2.65 ± 0.2 | -2.41 ± 0.22
CGAAAGCAAUAUUACGCCUG | -0.16 ± 0.095 | 0.392 ± 0.11
CGAAAGCAAUAUUACGCGCC | -1.85 ± 0.21 | 0.0231 ± 0.24
CGAAAGCAAUAUUACGCGCU | -2.08 ± 0.13 | -1.6 ± 0.12
CGAAAGCAAUAUUACGCUGA | -3.09 ± 0.22 | -1.54 ± 0.19
CGAAAGCAAUAUUACGCUUU | -3.54 ± 0.35 | -2.7 ± 0.41
CGAAAGCAAUAUUACGGAAA | -2.9 ± 0.28 | -2.49 ± 0.22
CGAAAGCAAUAUUACGGACG | -2.73 ± 0.21 | -2.25 ± 0.22
CGAAAGCAAUAUUACGGCAA | -1.82 ± 0.11 | -1.03 ± 0.1
CGAAAGCAAUAUUACGGGAA | -2.17 ± 0.4 | -2.08 ± 0.26
CGAAAGCAAUAUUACGGUAA | -2.13 ± 0.16 | -1.56 ± 0.15
CGAAAGCAAUAUUACGGUCA | -0.303 ± 0.12 | -0.586 ± 0.14
CGAAAGCAAUAUUACGUAGA | -2.43 ± 0.092 | -1.49 ± 0.12
CGAAAGCAAUAUUACGUAUU | -3.3 ± 0.15 | -1.51 ± 0.13
CGAAAGCAAUAUUACGUCCA | -1.26 ± 0.12 | -0.276 ± 0.13
CGAAAGCAAUAUUACGUCGU | -3.33 ± 0.14 | -2.36 ± 0.18
CGAAAGCAAUAUUACGUCUC | -2.71 ± 0.42 | -1.15 ± 0.26
CGAAAGCAAUAUUACGUGCU | -3.73 ± 0.18 | -2.41 ± 0.18
CGAAAGCAAUAUUACGUGUG | -0.273 ± 0.054 | 0.27 ± 0.066
CGAAAGCAAUAUUACGUUCA | -0.312 ± 0.074 | 0.0231 ± 0.091
CGAAAGCAAUAUUACGUUGC | -4.09 ± 0.17 | -3.23 ± 0.2
CGACAGCAAUAUUACGACUU | -1.1 ± 0.059 | -0.881 ± 0.066
